The target in one assay is T1, human CD3 (human, UniProt P07766 23-126).
T1 construct: not shown: A CD3 delta or gamma partner chain is possible if the reagent was a heterodimer
In words: SPR (Biacore); CD3 captured on anti-His antibody chip, antibody injected at 5 concentrations. On the procedure:
A series of sample antibodies were assayed for SPR (Surface Plasmon Resonance) signals upon human CD3 binding on the Biacore platform. Ka, Kd and KD were calculated from the experimental results and used to evaluate affinity of the antibodies for human CD3. CD3 molecules as ligands were immobilized to chips conjugated with anti-histine antibodies. Sample antibodies, at 5 different concentrations, were injected to the system to be analyzed.
A general note: In SPR one partner is held on a chip, and binding of the other changes the refractive index at the surface.

Assay [1] has as its target T2, human CD19 (His-tagged) (human, UniProt P15391 20-291).
T2 construct: Captured on chips carrying anti-histidine antibodies
T2 sequence (looked up): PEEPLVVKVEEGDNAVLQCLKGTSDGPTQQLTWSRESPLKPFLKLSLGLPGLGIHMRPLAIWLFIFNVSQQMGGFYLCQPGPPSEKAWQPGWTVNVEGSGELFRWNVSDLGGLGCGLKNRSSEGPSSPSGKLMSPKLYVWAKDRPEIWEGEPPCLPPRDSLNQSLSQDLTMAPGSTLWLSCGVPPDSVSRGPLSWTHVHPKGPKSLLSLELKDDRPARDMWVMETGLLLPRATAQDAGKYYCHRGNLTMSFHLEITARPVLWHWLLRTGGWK
As to the kind of experiment: SPR (Biacore); CD19 captured on anti-His antibody chip, antibody injected at 5 concentrations. The method, then: A series of sample antibodies were assayed for SPR (Surface Plasmon Resonance) signals upon human CD19 binding on the Biacore platform. Kₐ, Kd and KD were calculated from the experimental results and used to evaluate affinity of the antibodies for human CD19. CD19 molecules as ligands were immobilized to chips conjugated with anti-histine antibodies. Sample antibodies, at 5 different concentrations, were injected to the system to be analyzed. Anti-CD3 antibody UCHT1 and anti-CD19 antibody HD37 were also examined as #20 and #21, respectively. The results are shonw in FIG. 7 and Table 15.

Another assay concerns the target T3, human CD3E (human, UniProt P07766 23-126, limits assumed).
T3 construct: Captured on chips carrying anti-histidine antibodies, 'using the same method' as the His-tagged CD19
In words: SPR (BIAcore); human CD3E captured on anti-His antibody chip, antibody at 5 concentrations. The method, then: (§1) Binding affinity for human CD3E or human CD19 of the CD3×CD19 bispecific antibody was tested by BIAcore, and Kₐ, Kd and KD values of the antibody were calculated based on the results. His-tagged human CD19 was used as ligand and captured on chips conjugated with anti-histine antibodies. Candidate molecules in five different concentrations were analyzed for their affinity for CD19. Affinity for human CD3E was examined using the same method.

Assay [2] addresses T2, human CD19 (His-tagged). As to the kind of experiment: SPR (BIAcore); His-tagged human CD19 captured on anti-His antibody chip, antibody at 5 concentrations. The method, then: as §1
Assay [3] has as its target T2, human CD19 (His-tagged). As to the kind of experiment: SPR (Biacore); CD19 captured on anti-His antibody chip, antibody injected at 5 concentrations. The method, then:
Affinity: Affinity kinetics studies based on human CD19-binding assays. A series of sample antibodies were assayed for SPR (Surface Plasmon Resonance) signals upon human CD19 binding on the Biacore platform. Kₐ, Kd and KD were calculated from the experimental results and used to evaluate affinity of the antibodies for human CD19. CD19 molecules as ligands were immobilized to chips conjugated with anti-histine antibodies. Sample antibodies, at 5 different concentrations, were injected to the system to be analyzed.
This is another data set of the same source.

Substitutions are numbered along the chain they refer to.

T1 sequence (P07766 23-126 limits assumed): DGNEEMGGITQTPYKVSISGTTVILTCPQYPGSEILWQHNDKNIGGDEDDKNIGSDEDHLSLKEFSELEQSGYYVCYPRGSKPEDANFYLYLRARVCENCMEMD
T3 sequence (P07766 23-126 limits assumed): as above

B1: Antibody #25, CD19×CD3 DICAD (bispecific antibody, name in Kabat numbering)
chain 1: DIQLTQSPASLAVSLGQRATISCKASQSVDYDGDSYLNWYQDIPGQPPKLLIYDASNLVSGIPPRFSGSGSGTDFTLNIHPVEKVDAATYHCQQSTEDPWTFGGGTKLEIKGGSGGSGGSEVQLVESGGGLVQPGGSLRLSCAASGYSFTGYTMNWVRDAPGKCLEWVALINPYKGVSTYNQKFKDRFTISVDKSKNTAYLQMNSLRAEDTAVYYCARSGYYGDSDWYFDVWGQGTLVTVSS
chain 2: DIQMTQSPSSLSASVGDRVTITCRASQDIRNYLNWYQKKPGKAPKLLIYYTSRLESGVPSRFSGSGSGTDYTLTISSLQPEDFATYYCQQGNTLPWTFGCGTKVEIKGGSGGSGGSQVQLQQSGAELVRPGSSVKISCKASGYAFSSYWMNWVKKRPGQGLEWIGQIWPGDGDTNYNGKFKGKATLTADESSSTAYMQLSSLASEDSAVYFCARRETTTVGRYYYAMDYWGQGTSVTVSS
notes: Same mutations as #9, with the 9-residue linker; also called 025; Sample25; not shown: hinge-CH2-CH3
What is called Kd is a measure of binding affinity in units of concentration. Read a low Kd as a tighter complex. Turning to B1, the results for the Kd in the assay with human CD3 and in the assay with human CD19 (His-tagged) [1] were 34.9 nM and 1 nM, respectively.

B2: Antibody #43, CD19×CD3 DICAD (bispecific antibody)
chain 1: B1 chain 1 with D42Q
chain 2: B1 chain 2 with K155Q
notes: also called 043; Sample43; not shown: hinge-CH2-CH3
Turning to B2, the values for the Kd with human CD3 and with human CD19 (His-tagged) [1] were 269 nM and 0.537 nM, respectively.

B3: Antibody #1, CD19×CD3 Di-Diabody from HD37 and UCHT1, no interface mutations (bispecific antibody)
chain 1: DIQLTQSPASLAVSLGQRATISCKASQSVDYDGDSYLNWYQQIPGQPPKLLIYDASNLVSGIPPRFSGSGSGTDFTLNIHPVEKVDAATYHCQQSTEDPWTFGGGTKLEIKRTVAAEVQLVESGGGLVQPGGSLRLSCAASGYSFTGYTMNWVRQAPGKGLEWVALINPYKGVSTYNQKFKDRFTISVDKSKNTAYLQMNSLRAEDTAVYYCARSGYYGDSDWYFDVWGQGTLVTVSS
chain 2: DIQMTQSPSSLSASVGDRVTITCRASQDIRNYLNWYQQKPGKAPKLLIYYTSRLESGVPSRFSGSGSGTDYTLTISSLQPEDFATYYCQQGNTLPWTFGQGTKVEIKRTVAAQVQLQQSGAELVRPGSSVKISCKASGYAFSSYWMNWVKQRPGQGLEWIGQIWPGDGDTNYNGKFKGKATLTADESSSTAYMQLSSLASEDSAVYFCARRETTTVGRYYYAMDYWGQGTSVTVSS
notes: Peptide 1: CD19VL-linker-CD3VH-hinge-CH2-CH3; also called 001; Sample01; not shown: hinge-CH2-CH3
On to B3, for which, in the assay with human CD19 (His-tagged) [1], the Kd is 0.769 nM.

B4: Antibody #9, CD19×CD3 DICAD (bispecific antibody, name in Kabat numbering)
chain 1: B3 chain 1 with Q42D, Q155D, G160C
chain 2: B3 chain 2 with Q38K, Q100C, Q151K
notes: also called 009; not shown: hinge-CH2-CH3
As to B4, the values for the Kd with human CD3 and with human CD19 (His-tagged) [1] were 172 nM and 0.26 nM, respectively.

B5: Antibody #63, DICAD CD19×CD3 (1:1) bispecific (bispecific antibody)
chain 1: EIVLTQSPATLSVTPGERATLSCSASSSVSYMHWYQKKPGQAPRLLIYDTSKLASGIPARFSGSGSGTDFTLTISSLEPEDFAVYYCFQGSVYPFTFGCGTKLEIKRTVAAEVQLVESGGGLVQPGGSLRLSCAASGFTFNTYAMNWVRKAPGKGLEWVGRIRSKYNNYATYYADSVDKGRFTISRDDSKNSLYLQMNSLKTEDTAVYYCVRHGNFGNSYVSWFAYWGQGTLVTVSS
chain 2: EAVVTQEPSLTVSPGGTVTLTCRSSTGAVTTSNYANWVQDKPGQAPRGLIGGTNKRAPWTPARFSGSLLGGKAALTITGAQPEDEAGYYCALWYSNLWVFGGGTKLTVLRTVAAQVQLQESGPGLVKPSQTLSLTCTVSGGSISTSGMGVGWIRDHPGKCLEWIGHIWWDDDKRYNPALKSRVTISVDTSKNQFSLKLSSVTAADTAVYYCARMELWSYYFDYWGQGTTLTVSSASEPKSDKTHTCPPCPAPPVAGGPSVPLPPPKPKDTLMISRTPEVTCVVVDVSQEDPEVKFNWYVDGVGVHNAKTKPREEQFNSTYRVVSVLTVLHQDWLNGKEYKCKVSNKGLPSSIEKTISKAKGQPREPQVYTLPPCRDELTKNQVSLWCLVKGFYPSDIAVEWESNGQPENNYKTTPPVLDSDGSFFLYSKLTVDKSRWQQGNVFSCSVMHEALHNHYTQKSLSLSPGK
chain 3: DKTHTCPPCPAPPVAGGPSVFLFPPKPKDTLMISRTPEVTCVVVDVSQEDPEVKFNWYVDGVEVHNAKTKPREEQFNSTYRVVSVLTVLHQDWLNGKEYKCKVSNKGLPSSIEKTISKAKGQPREPQVCTLPPSRDELTKNQVSLSCAVKGFYPSDIAVEWESNGQPENNYKTTPPVLDSDGSFFLVSKLTVDKSRWQQGNVFSCSVMHEALHNRFTQKSLSLSPGK
notes: also called 063; #63-CD3×CD19 bispecific
For orientation: koff means a measure of how fast the partners let go of each other. Low readings indicate slow dissociation, high ones fast dissociation. For orientation: kon means a measure of how fast the partners come together. The low end stands for slower complex formation, the high end for faster complex formation. In the assay with human CD3E, B5 returned a Kd of 31.4 nM, a koff of 0.0153 s⁻¹ and a kon of 488000 M⁻¹ s⁻¹. In the assay with human CD19 (His-tagged) [2], this molecule registered a Kd of 1.83 nM, a koff of 0.000669 s⁻¹ and a kon of 365000 M⁻¹ s⁻¹.

B6: HD37, anti-CD19 parental antibody (#21) (antibody, V domains shown)
VH: QVQLQQSGAELVRPGSSVKISCKASGYAFSSYWMNWVKQRPGQGLEWIGQIWPGDGDTNYNGKFKGKATLTADESSSTAYMQLSSLASEDSAVYFCARRETTTVGRYYYAMDYWGQGTSVTVSS
VL: DIQLTQSPASLAVSLGQRATISCKASQSVDYDGDSYLNWYQQIPGQPPKLLIYDASNLVSGIPPRFSGSGSGTDFTLNIHPVEKVDAATYHCQQSTEDPWTFGGGTKLEIK
notes: also called 021
As for B6, in the assay with human CD3, the binding result is “no binding”. The figures for the Kd with human CD19 (His-tagged) [1] and in the assay with human CD19 (His-tagged) [3] were 0.537 nM and 3.81 nM, respectively.

B7: Antibody #54, TRIAD CD19×CD3 (Fab arm anti-CD19) (bispecific antibody)
chain 1: B6 VL with Q42K, G104C
chain 2: EVQLVESGGGLVQPGGSLRLSCAASGYSFTGYTMNWVRKAPGKGLEWVALINPYKGVSTYNQKFKDRFTISVDKSKNTAYLQMNSLRAEDTAVYYCARSGYYGDSDWYFDVWGQGTLVTVSS
chain 3: DIQMTQSPSSLSASVGDRVTITCRASQDIRNYLNWYQDKPGKAPKLLIYYTSRLESGVPSRFSGSGSGTDYTLTISSLQPEDFATYYCQQGNTLPWTFGQGTKVEIK
chain 4: B6 VH with Q39D, G44C
chain 5: B6 VH
chain 6: B6 VL
Turning to B7, the Kd with human CD19 (His-tagged) [3] came to 0.806 nM.

B8: Antibody #50, TRIAD CD19×CD3 (Fab arm anti-CD19) (bispecific antibody)
chain 1: B7 chain 3 with D38K, Q100C
chain 2: B6 VH with Q39K
chain 3: B6 VL with Q42D
chain 4: B7 chain 2 with K39D, G44C
chain 5: B6 VH
chain 6: B6 VL
In the assay with human CD19 (His-tagged) [3], B8 registered a Kd of 1.73 nM.

Values taken from US20210102001A1 (CHIMAGEN BIOSCIENCES, published 2021).
